In article PMC10204179:

Target: protein G_1
Test: SEC-MALS

stoichiometry N: 2
Substance: protein G_1
